Test results: patent US20240052052A1 (ANTENGENE BIOLOGICS, published 2024)

T1: human CD24 (human, UniProt P25063 27-59, heavily glycosylated, GPI-anchored (as described in the background))
T1 construct: whole, on cells; Target of all cell-based FACS assays; also called hCD24; Cluster of differentiation 24
T1 chain (looked up): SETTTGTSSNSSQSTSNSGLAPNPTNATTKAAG


Columns and labels:
[1] = target: T1, human CD24; test: FACS, H1975 cells
Description: (§1) Screening & Expansion: The subcloning plates were screened by Acumen assay and the subclones with good binding ability were expanded to 24-wells for confirmation tests. The specificity and cross-reactivity of these subclones were confirmed with FACs analysis. […] Fluorescent dye-conjugated secondary antibody was used to detect the binding of the primary antibody with the cells. Median fluorescence intensity (MFI) was measured by FACs analysis.

[2] = target: T1, human CD24; test: FACS, HT-29 cells
Description: (§2) Sequences of some of antibodies from Table 1 were selected to generate and produce human IgG4 chimeric antibodies. […] The protocol for FACs analysis is described as follows: [0536] a. Digested cells using TrypLE™ Express Enzyme (IX); Centrifuged the harvested cells at 400 g for 5 min and discarding the supernatant. [0537] b. Washed the cells 2 times with cold FACS buffer by centrifuging at 400 g for 5 min and discarding the supernatant. [0538] c. […] Incubate at […] for 1 h. [0539] d. Washed the cells twice by using the condition in step b. Resuspended the cells with 100 μl/well diluted 2nd antibody, incubated at 4 degree for 1 h in the dark. [0540] e. Washed the cells twice by using the condition in step b. Resuspended the cells with 100 μl/well cold FACS buffer. Kept the cells in dark for FACS analysis.

[3] = target: T1, human CD24; test: FACS, 293F-hCD24 cells
Description: as §1

[4] = target: T1, human CD24; test: FACS, 293F-hCD24 cells
Description: as §2

[5] = target: T1, human CD24; test: FACS, MCF7 cells
Description: as §1

[6] = target: T1, human CD24; test: FACS, Nalm1 cells
Description: as §2

[7] = target: T1, human CD24; test: FACS, 5637 cells
Description: as §1

[8] = target: T1, human CD24; test: FACS, MCF7 cells
Description: as §2

[9] = target: T1, human CD24; test: FACS, 5637 cells
Description: as §2

[10] = target: T1, human CD24; test: FACS, CHOK1-hCD24 cells
Description: as §2

[11] = target: T1, human CD24; test: FACS, H1975 cells
Description: as §2

[12] = target: T1, human CD24; test: FACS, Nalm1 cells
Description: as §1

[13] = target: T1, human CD24; test: FACS, A549 cells
Description: as §2

[14] = target: T1, human CD24; test: FACS, MDA-MB-468 cells
Description: as §2

[15] = target: T1, human CD24; test: flow cytometry, HT-29 and Nalm6 cells
Description: Briefly, HT-29 or Nalm6 cells were washed three times using PBS and firstly incubated with humanized variants. After three times washing, secondary antibody was incubated with cells. MFI of the samples was analyzed with Flow Cytometry and cells-based affinity was calculated.

Binder | FACS MFI [1] | EC50 [2] | Max MFI [2] | FACS MFI [3] | EC50 [4] | Max MFI [4] | FACS MFI [5] | EC50 [6] | Max MFI [6] | FACS MFI [7] | EC50 [8] | EC50 [9] | EC50 [10] | Max MFI [10] | EC50 [11] | FACS MFI [12] | EC50 [13] | Max MFI [13] | EC50 [14] | FACS MFI [14] | other results
71A4F12 (antibody, V domains shown, mouse monoclonal antibody) VH: EVQLQQSGPELVKPGASVKIPCKASGYTFTAYNMDWVKQSHGMSLEWIGDINPNNGDTVYNQNFKGKATLTVDKSSSTAYMELRSLTSEDTAVYYCARRGSYYYGSSHYALDFWGQGTSVSVSS VL: DIQMTQITSSLSASLGNRVTISCRASQDIRNYLNWYQQKPDGTVKLLIYYTSRLLSGVPSRFSGSGSGTDYSLTISNLEQEDIATYFCQQDNSLPRTFGGGTRLEIR | 7200 | 5.46 nM | 4780 | 7350 | 6.74 nM | 39400 | 2420 | 6.28 nM | 45000 | 18600 | 121 nM | 39.7 nM | 1.72 nM | 28800 | 71.9 nM | 45000 | 1.97 nM | 4410 | 11.7 nM | 32500 | Max MFI [8]: 12600
58F10-1F6 (antibody, V domains shown, mouse monoclonal antibody) VH: EVQLRQSGPELVKPGAAVKISCKASGYSFTGYHMNWVKQSPEKSLEWIGEINPITSGITYNQIFKAKATLTVDKSSSTAYLQLKSLTSEDSAVYYCTRRDYGTSLDYWGQGTTLTVSS VL: DIQMTQITSSLSASLGDRVTITCRASQDISNYLNWYQQKPDGTVKLLIYYTSRLLSGVPSRFSGSGSGTDYSLTISNLEQEDIATYFCQQDHTLPRTFGGGTKLEIR | 17500 | 10.8 nM | 4900 | 7420 | 24.1 nM | 58200 | 17400 | 8.72 nM | 60300 | 34200 | 43.4 nM | 22.4 nM | 9.7 nM | 28100 | 53.1 nM | 20900 | 12.6 nM | 12600 | 38.9 nM | 49800 | –
81A1F8-VH-11/VL-21 (antibody, V domains shown, humanized antibody based on 81A1F8; also called 81A1F8-1121) VH: QVQLVQSGAEVKKPGASVKVSCKASGYLFTGYYMNWVRQAPGQGLEWMGEINPNTGDTNNNQKFKARVTMTVDRSISTAYMELSRLRSDDTAVYYCVRRDYGTSLDYWGQGTLVTVSS VL: DVQITQSPSFLSASVGDRVTITCRASKSINKYLAWYQQKPGKAPKLLIHSGSTLQSGVPSRFSGSRSGTEFTLTISSLQPEDFATYYCQQHNEYPITFGQGTKLEIK | – | – | – | – | – | – | – | – | – | – | – | – | – | – | – | – | – | – | – | – | binding result [15]: binds
81A1F8-VH-21/VL-21 (antibody, V domains shown, humanized antibody based on 81A1F8; also called 81A1F8-2121) VH: QVQLVQSGAEVKKPGASVKVSCKASGYLFTGYYMNWVRQAPGQGLEWMGEINPNTGDTNNNQKFKARVTMTVDRSTSTAYMELSSLRSEDTAVYYCVRRDYGTSLDYWGQGTLVTVSS VL: DVQITQSPSFLSASVGDRVTITCRASKSINKYLAWYQQKPGKAPKLLIHSGSTLQSGVPSRFSGSRSGTEFTLTISSLQPEDFATYYCQQHNEYPITFGQGTKLEIK | – | – | – | – | – | – | – | – | – | – | – | – | – | – | – | – | – | – | – | – | binding result [15]: binds
81A1F8-VH-21/VL-41 (antibody, V domains shown, humanized antibody based on 81A1F8; also called 81A1F8-2141) VH: QVQLVQSGAEVKKPGASVKVSCKASGYLFTGYYMNWVRQAPGQGLEWMGEINPNTGDTNNNQKFKARVTMTVDRSTSTAYMELSSLRSEDTAVYYCVRRDYGTSLDYWGQGTLVTVSS VL: DVQITQSPSTLSASVGDRVTITCRASKSINKYLAWYQQKPGKAPKLLIHSGSTLQSGVPSRFSGSRSGTEFTLTISSLQPDDFATYYCQQHNEYPITFGQGTKLEIK | – | – | – | – | – | – | – | – | – | – | – | – | – | – | – | – | – | – | – | – | binding result [15]: binds
81A1F8-VH-11/VL-41 (antibody, V domains shown, humanized antibody based on 81A1F8) VH: QVQLVQSGAEVKKPGASVKVSCKASGYLFTGYYMNWVRQAPGQGLEWMGEINPNTGDTNNNQKFKARVTMTVDRSISTAYMELSRLRSDDTAVYYCVRRDYGTSLDYWGQGTLVTVSS VL: DVQITQSPSTLSASVGDRVTITCRASKSINKYLAWYQQKPGKAPKLLIHSGSTLQSGVPSRFSGSRSGTEFTLTISSLQPDDFATYYCQQHNEYPITFGQGTKLEIK | – | – | – | – | – | – | – | – | – | – | – | – | – | – | – | – | – | – | – | – | binding result [15]: binds
73H5-1G2 (antibody, V domains shown, mouse monoclonal antibody) VH: QVQLKQSGPGLVQPSQSLSITCTVSGFSLTNYGVHWIRQSPGKGLEWLGVIWRGGSTDYNAAFMSRLSITKDNSKSQVFFQMNSLQAADTAIYYCANNYGYDCFAYWGQGTLVTVSA VL: DVQITQSPSYLAASPGETITINCRASKSIIKYLAWYQEKPGKTNKLLIYSGSTLQSGIPSRFSGSGSGTDFTLTITSLEPEDFAMYYCQQHNEYPLTFGAGTRLELK | 2200 | 40 nM | 4820 | 20100 | 16.2 nM | 20100 | 373 | 33.8 nM | 58500 | 6360 | 45.9 nM | 24.6 nM | 23.8 nM | 19900 | 31.3 nM | 58500 | 36 nM | 5700 | 28 nM | 6400 | Max MFI [9]: 7440
110D4G4 (antibody, V domains shown, mouse monoclonal antibody; also called mAb-110D4G4) VH: EVQLQQSGPGLVKPGASVKISCRASGYLFTGYYMNWVKQSPEKSLEWIGEINPNTGDPRYDQKFKAKATLTVDRSSSTAYMHLKSLTSEDSAVYFCARRDYGTSLDYWGQGTTLTVTS VL: DVQITQSPSYLAASPGETITINCRASKSISKYLAWYQEKPGKTNKLLIYSGSTLQSGIPSRFSGSGSGSDFTLTISSLEPEDFAMYYCQQHNEYPLTFGAGTKLELK | 24900 | 2.92 nM | 5610 | 56500 | 6.55 nM | 56500 | 21200 | 3.27 nM | 76200 | 47100 | 5.2 nM | 5.89 nM | 1.52 nM | 28900 | 5.22 nM | 76200 | 2.72 nM | 18400 | 12.2 nM | 52800 | –
